How the values were obtained:
[1] = biological target: T1, His-Avidin-FKBP (wild-type FKBP) (biotinylated (residue not stated; construct carries an avi-tag)); assay: AlphaLISA direct assay: 30 nM Flag-FRB and 30 nM biotinylated FKBP; the titrated species is everolimus (EC50 is an everolimus concentration)
T1 construct: also called biotinylated wild-type FKBP; biotinylated FKBP
Procedure: (§1) FRB mutations were also ranked in an alternative assay format. […] All dilutions were made in 1 × AlphaLISA Immunoassay buffer (PerkinElmer). Anti-Flag acceptor beads (PerkinElmer) were added at 10 ug/ml final concentration and incubated for one hour at room temperature. Streptavidin donor beads (PerkinElmer), were then added at a final concentration of 40 ug/ml and the plate was protected from light and incubated for 30 minutes at room temperature. The plate was then read on the PerkinElmer EnVision Multiplate reader equipped with the Alpha Module using excitation of 680 nm and a 570 nm Emission filter.

[2] = biological target: T1, His-Avidin-FKBP (wild-type FKBP); assay: AlphaLISA direct assay, Flag-FRB and biotinylated FKBP, everolimus titrated
Procedure: as §1

T1 sequence (chain, as listed by the source limits assumed): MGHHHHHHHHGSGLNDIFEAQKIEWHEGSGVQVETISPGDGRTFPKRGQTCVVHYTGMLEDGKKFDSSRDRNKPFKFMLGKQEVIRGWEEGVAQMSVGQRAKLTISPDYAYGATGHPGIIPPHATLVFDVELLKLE

EC50 [1] [nM] | fold improvement over wild type FRB [2] [fold] | Binder
3.9 |  | His-FLAG-FRB (wild-type FRB) (other, also called wild type Flag-FRB) MGHHHHHHHHGSDYKDDDDKGSASRILWHEMWHEGLEEASRLYFGERNVKGMFEVLEPLHAMMERGPQTLKETSFNQAYGRDLMEAQEWCRKYMKSGNVKDLTQAWDLYYHVFRRISKTS
1.44 | 3 | His-FLAG-FRB T2098L (other) MGHHHHHHHHGSDYKDDDDKGSASRILWHEMWHEGLEEASRLYFGERNVKGMFEVLEPLHAMMERGPQTLKETSFNQAYGRDLMEAQEWCRKYMKSGNVKDLLQAWDLYYHVFRRISKTS
2.15 |  | His-FLAG-FRB E2032L (other) MGHHHHHHHHGSDYKDDDDKGSASRILWHEMWHEGLLEASRLYFGERNVKGMFEVLEPLHAMMERGPQTLKETSFNQAYGRDLMEAQEWCRKYMKSGNVKDLTQAWDLYYHVFRRISKTS
2.46 |  | His-FLAG-FRB E2032I (other, also called E20321 (OCR form)) MGHHHHHHHHGSDYKDDDDKGSASRILWHEMWHEGLIEASRLYFGERNVKGMFEVLEPLHAMMERGPQTLKETSFNQAYGRDLMEAQEWCRKYMKSGNVKDLTQAWDLYYHVFRRISKTS

— patent US20220378833A1 (Novartis, published 2022)
